Measured values from patent publication US20160207991A1 (Pfizer, published 2016).
Changes are numbered by the printed parent chain.

B1: anti-BDNF antibody R3BH1 (chicken-human chimeric IgG) (antibody, V domains shown)
VH: AVTLDESGGGLQTPGGGLSLVCKASGFDFSSYDMHWVRQAPGKGLEWVAGIDDGGSDTYYGSAVKGRATISRDNGQSTVRLQLNNLRAEDTGTYYCAKSSYDISWNGHVENIDAWGHGTEVIVSS
VL: ALTQPTSVSTNLGGTVEITCSGAGSGYGYGWFQQKSPGSAPVTVIYSNDKRPSDIPSRFSGSKSGSTGTLTITGVQAEDEAVYFCGTYDSTDAGYAIFGAGTTLTVL
notes: also called R3BH1 IgG; chimeric R3BH1
B2: humanised affinity matured anti-BDNF antibody B30 (antibody, V domains shown)
VH: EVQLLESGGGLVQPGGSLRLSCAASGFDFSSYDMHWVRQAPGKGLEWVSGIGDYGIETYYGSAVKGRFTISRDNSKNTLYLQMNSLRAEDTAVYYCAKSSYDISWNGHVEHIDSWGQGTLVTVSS
VL: SSELTQPPAVSVALGQTVRITCSGAGSGYGYGWYQQKPGQAPVTVIYSNDKRPSGIPDRFSGSSSGNTASLTITGAQAEDEADYYCGTYVSAYYGYAIFGGGTKLTVL
B3: humanised affinity-optimized anti-BDNF antibody B20 (antibody, V domains shown)
VH: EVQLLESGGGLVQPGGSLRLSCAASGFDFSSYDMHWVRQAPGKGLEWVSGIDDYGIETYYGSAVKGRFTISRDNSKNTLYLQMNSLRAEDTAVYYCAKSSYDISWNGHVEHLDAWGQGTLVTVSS
VL: B2 VL with V90D, A92T, Y93D, Y94A
B4: humanised affinity-optimized anti-BDNF antibody B18 (antibody, V domains shown)
VH: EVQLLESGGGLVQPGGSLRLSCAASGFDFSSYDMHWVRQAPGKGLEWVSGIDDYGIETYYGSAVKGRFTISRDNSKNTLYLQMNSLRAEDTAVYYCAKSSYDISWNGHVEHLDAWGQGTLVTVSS
VL: B2 VL with S23Q, A25D, G26S, S48G, N49K, D50N, K51N

How the values were obtained:
[1] = biological target: T1, human brain-derived neurotrophic factor (BDNF) (human, UniProt P23560 129-247); experiment: SPR, Biacore T200; human BDNF amine-coupled to CM5, antibody injected; 1:1 Langmuir; 37 C
T1 construct: In the HTRF assays the BDNF was biotinylated; also called hBDNF; human BDNF
T1 sequence: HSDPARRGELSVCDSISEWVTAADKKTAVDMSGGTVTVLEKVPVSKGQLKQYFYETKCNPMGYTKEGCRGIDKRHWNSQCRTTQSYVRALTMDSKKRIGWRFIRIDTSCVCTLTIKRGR
Experimental: (§1) All SPR experiments were performed at 37° C. and a data collection rate of 1 Hz with HBS-EP+ used as both the sample and running buffer. The resulting sensorgrams were double referenced with buffer injections and a non-derivatized flow cell surface. Rate constants were determined by applying a 1:1 Langmuir binding model using the T200 evaluation software v1.0 and the equation KD=kd/kₐ.
The dissociation phase for the highest concentration of antibody was extended to 4000 seconds to achieve a signal decay minimum of 5%. The kinetic rate constants were determined using a Langmuir 1:1 binding model and T200 evaluation software v1.0.

[2] = biological target: T1, human brain-derived neurotrophic factor …; experiment: SPR, Biacore T200; immobilised human BDNF; 37 C (same data as Table 10)
Experimental: as §1

[3] = biological target: T2, endogenous rat BDNF in plasma (rat, UniProt P23363 131-249, limits assumed); experiment: ligand-binding assay (Gyrolab) for total BDNF in plasma of dosed rats
T2 construct: also called endogenous BDNF
T2 sequence (looked up): T1 sequence
Experimental: Sample concentrations were determined by interpolation from a standard curve that was fitted using a 5-parameter logistic curve fit with 1/y² response weighting.

recombinant human CXCL9 [4] = biological target: T3, recombinant human CXCL9 (human, UniProt Q07325 23-125); experiment: ELISA (Example 7): plate coated with 1 µg/ml of the antigen, antibody at the highest concentration of the titration, anti-IgG-HRP, TMB
T3 sequence (looked up): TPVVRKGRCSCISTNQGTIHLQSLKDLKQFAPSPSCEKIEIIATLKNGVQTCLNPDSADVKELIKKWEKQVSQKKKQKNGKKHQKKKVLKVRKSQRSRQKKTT
Experimental: (§2) NUNC plates were coated with 1 μg/ml of a neurotrophin or chemokine in 1×PBS overnight. […] Plates were washed and a 1/5000 dilution of anti-IgG-HRP (horse radish peroxidase) in blocking buffer was added for 1 h (100 μL total volume). Plates were washed and developed by addition of 3,3′,5,5′-Tetramethylbenzidine (TMB) substrate and subsequently stopped with phosphoric acid.

[5] = biological target: T4, p75NTR receptor (immobilised on the SPR flow cell) (Homo sapiens (Human), UniProt P08138 29-250); experiment: as above
T4 construct: also called p75 neurotrophic receptor; LNGFR
T4 sequence: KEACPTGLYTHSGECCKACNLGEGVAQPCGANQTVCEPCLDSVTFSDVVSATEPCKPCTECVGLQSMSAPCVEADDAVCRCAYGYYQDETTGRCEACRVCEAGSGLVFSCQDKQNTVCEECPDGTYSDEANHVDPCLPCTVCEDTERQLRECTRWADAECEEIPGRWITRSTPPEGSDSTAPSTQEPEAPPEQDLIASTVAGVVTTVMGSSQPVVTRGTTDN
Experimental: as §2

[6] = biological target: T5, recombinant human beta-NGF (human, UniProt P01138 122-241); experiment: as above
T5 construct: also called β-NGF; Nerve Growth Factor
Experimental: as §2

recombinant human CXCL10 [7] = biological target: T6, recombinant human CXCL10 (human, UniProt P02778 22-98); experiment: as above
T6 sequence (looked up): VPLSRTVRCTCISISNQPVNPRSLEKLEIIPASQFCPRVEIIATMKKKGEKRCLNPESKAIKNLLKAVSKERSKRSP
Experimental: as §2

recombinant human CXCL13 [8] = biological target: T7, recombinant human CXCL13 (human, UniProt O43927 23-109); experiment: as above
T7 sequence (looked up): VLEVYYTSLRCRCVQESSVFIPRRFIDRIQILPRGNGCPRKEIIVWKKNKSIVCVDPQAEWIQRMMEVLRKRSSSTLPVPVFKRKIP
Experimental: as §2

[9] = biological target: T8, recombinant human neurotrophin-4 (human, UniProt P34130 81-210); experiment: as above
T8 construct: also called NT4; NT-4
T8 sequence (looked up): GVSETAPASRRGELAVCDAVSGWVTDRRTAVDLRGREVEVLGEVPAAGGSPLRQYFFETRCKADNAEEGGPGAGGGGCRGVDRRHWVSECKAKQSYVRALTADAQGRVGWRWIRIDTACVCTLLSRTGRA
Experimental: as §2

[10] = biological target: T9, recombinant human neurotrophin-3 (human, UniProt P20783 139-257); experiment: as above
T9 construct: also called NT3; NT-3
T9 sequence (looked up): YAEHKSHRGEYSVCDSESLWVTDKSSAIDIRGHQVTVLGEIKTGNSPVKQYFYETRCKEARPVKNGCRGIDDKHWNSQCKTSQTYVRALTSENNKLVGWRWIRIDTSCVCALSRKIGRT
Experimental: as §2

[11] = biological target: T1, human brain-derived neurotrophic factor …; experiment: competition HTRF (Example 12): 1 nM biotinylated human BDNF, europium cryptate labelled H1, SA-XL665, unlabelled antibody titrated; competitor: labelled H1; x axis is log10 of pM by the text
Experimental: Reagents were added sequentially on the MiniTrak Liquid Handling Platform (Perkin-Elmer) into 384-well low volume black plates (Nunc).

recombinant CXCL3 = biological target: T10, recombinant CXCL3 (Homo sapiens (Human), UniProt P19876 35-107); experiment: ELISA (Example 14, conditions of Example 7): plate coated with 1 µg/ml of the antigen, antibody at the highest concentration of the titration, anti-IgG-HRP, TMB
T10 sequence: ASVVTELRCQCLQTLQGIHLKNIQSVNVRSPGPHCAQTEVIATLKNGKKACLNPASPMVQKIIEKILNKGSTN

recombinant human CXCL9 [12] = biological target: T3, recombinant human CXCL9; experiment: as above
[13] = biological target: T4, p75NTR receptor (immobilised on the SPR …); experiment: as above
[14] = biological target: T5, recombinant human beta-NGF; experiment: as above
recombinant human CXCL10 [15] = biological target: T6, recombinant human CXCL10; experiment: as above
recombinant human CXCL13 [16] = biological target: T7, recombinant human CXCL13; experiment: as above
[17] = biological target: T8, recombinant human neurotrophin-4; experiment: as above
[18] = biological target: T9, recombinant human neurotrophin-3; experiment: as above
[19] = biological target: T1, human brain-derived neurotrophic factor …; experiment: cell-based or functional assay
[20] = biological target: T1, human brain-derived neurotrophic factor …; experiment: SPR, Biacore T200; immobilised human BDNF; 37 C
Experimental: as §1

T5 sequence (P01138 122-241 limits assumed): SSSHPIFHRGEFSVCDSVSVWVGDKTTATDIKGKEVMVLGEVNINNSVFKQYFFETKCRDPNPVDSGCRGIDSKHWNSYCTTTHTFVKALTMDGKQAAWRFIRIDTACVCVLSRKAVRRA

Row | Binder | binding result [3] | IC50 (read off the curve) [11] | binding result (recombinant CXCL3) | binding result (recombinant human CXCL9 [12]) | binding result [13] | binding result [14] | binding result (recombinant human CXCL10 [15]) | binding result (recombinant human CXCL13 [16]) | binding result [17] | binding result [18] | PathHunter pTrkB assay in U2OS TrkB/p75NTR cells, 300 pM BDNF [19] | pERK assay in U2OS TrkB/p75NTR cells, 150 pM BDNF [19] | Kd [20] | T1/2 [20] | koff [20] | kon [20] | further results
1 | B1 | binds | – | – | – | – | – | – | – | – | – | – | – | – | – | – | – | Kd [1]: 34.4 nM; T1/2 [1]: 1.13 min; koff [1]: 0.0103 s⁻¹; kon [1]: 303000 M⁻¹ s⁻¹; Kd [2]: 34.4 nM; T1/2 [2]: 1.13 min; koff [2]: 0.0103 s⁻¹; kon [2]: 300000 M⁻¹ s⁻¹; binding result (recombinant human CXCL9 [4]): no binding (tested: 300 µg/mL); binding result [5]: no binding (tested: 300 µg/mL); binding result [6]: no binding (tested: 300 µg/mL); binding result (recombinant human CXCL10 [7]): no binding (tested: 300 µg/mL); binding result (recombinant human CXCL13 [8]): no binding (tested: 300 µg/mL); binding result [9]: no binding (tested: 300 µg/mL); binding result [10]: no binding (tested: 300 µg/mL)
2 | B2 | binds | ~1 nM | no binding (tested: 300 µg/mL) | no binding (tested: 300 µg/mL) | no binding (tested: 300 µg/mL) | no binding (tested: 300 µg/mL) | no binding (tested: 300 µg/mL) | no binding (tested: 300 µg/mL) | no binding (tested: 300 µg/mL) | no binding (tested: 300 µg/mL) | 0.54 nM | 1.3 nM | 0.12 nM | 5.58 h | 3.5e-05 s⁻¹ | 290000 M⁻¹ s⁻¹ | –
3 | B3 | – | ~1 nM | no binding (tested: 300 µg/mL) | no binding (tested: 300 µg/mL) | no binding (tested: 300 µg/mL) | no binding (tested: 300 µg/mL) | no binding (tested: 300 µg/mL) | no binding (tested: 300 µg/mL) | no binding (tested: 300 µg/mL) | no binding (tested: 300 µg/mL) | 0.31 nM | 1.1 nM | 0.55 nM | 1.26 h | 0.000154 s⁻¹ | 280000 M⁻¹ s⁻¹ | –
4 | B4 | – | ~0.6 nM | no binding (tested: 300 µg/mL) | no binding (tested: 300 µg/mL) | no binding (tested: 300 µg/mL) | no binding (tested: 300 µg/mL) | no binding (tested: 300 µg/mL) | no binding (tested: 300 µg/mL) | no binding (tested: 300 µg/mL) | no binding (tested: 300 µg/mL) | 0.29 nM | 0.95 nM | 0.0994 nM | 7.03 h | 2.8e-05 s⁻¹ | 290000 M⁻¹ s⁻¹ | –
